Measured values reported in publication PMC7430671 (2020).

B1: RapZ_(1–279), BACTH fusion [E. coli] / itself (parent complex)
chain: MVLMIVSGRSGSGKSVALRALEDMGFYCVDNLPVVLLPDLARTLADREISAAVSIDVRNMPESPEIFEQAMSNLPDAFSPQLLFLDADRNTLIRRYSDTRRLHPLSSKNLSLESAIDKESDLLEPLRSRADLIVDTSEMSVHELAEMLRTRLLGKRERELTMVFESFGFKHGIPIDADYVFDVRFLPNPHWDPKLRPMTGLDKPVAAFLDRHTEVHNFIYQTRSYLELWLPMLETNNRSYLTVAIGCTGGKHRSVYIAEQLADYFRSRGKNVQSRHRTL
B2: RapZ_(1–279), BACTH fusion [E. coli] / full-length RNase E (RneFL), BACTH fusion [E. coli] (parent complex)
chain 1: B1 chain
chain 2: not shown

Variants of: B1
Assay: BACTH assay (self-interaction; β-galactosidase activity); bottom panel; same RapZ1-279 variant fused to T18 and to T25; mean ± SD, n ≥ 2; parent: 4.1e+03; read off a plot

Going from MVLMIVSGRSGSGKSVALRALEDMGFYCVDNLPVVLLPDLARTLADREISAAVSIDVRNMPESPEIFEQAMSNLPDAFSPQLLFLDADRNTLIRRYSDTRRLHPLSSKNLSLESAIDKESDLLEPLRSRADLIVDTSEMSVHELAEMLRTRLLGKRERELTMVFESFGFKHGIPIDADYVFDVRFLPNPHWDPKLRPMTGLDKPVAAFLDRHTEVHNFIYQTRSYLELWLPMLETNNRSYLTVAIGCTGGKHRSVYIAEQLADYFRSRGKNVQSRHRGL [chain 1 T278G] to MVLMIVSGRSGSGKSVALRALEDMGFYCVDNLPVVLLPDLARTLADREISAAVSIDVRNMPESPEIFEQAMSNLPDAFSPQLLFLDADRNTLIRRYSDTRRLHPLSSKNLSLESAIDKESDLLEPLRSRADLIVDTSEMSVHELAEMLRTRLLGKRERELTMVFESFGFKHGIPIDADYVFDVRFLPNPHWDPKLRPMTGLDKPVAAFLDRHTEVHNFIYQTRSYLELWLPMLETNNRSYLTVAIGCTGGKHRSVYIAEQLADYFRSRGKNVQSRHRTG [chain 1 L279G], the response falls from roughly 4000 Miller units to roughly 3300 Miller units.

Variants of: B2
Assay: BACTH assay (β-galactosidase activity); top panel; T18-RapZ1-279 variant with T25-RneFL (pYG100); mean ± SD, n ≥ 2; parent: 1.7e+03; read off a plot

Going from chain 1 T278G, chain 1 L279G to chain 1 L279G, the response rises from roughly 50 Miller units to roughly 100 Miller units.

Work on chain 1 T278G yielded a response of roughly 980 Miller units.
